Experimental data taken from the supplement of paper PMC9112550, “Optimization of the antimicrobial peptide Bac7 by deep mutational scanning” (BMC Biology, 2022).

test system: Escherichia coli TOP10; assay: shrunken log2 fold change of peptide-encoding DNA abundance (4.5 h post-induction vs induction); higher = less antimicrobial activity (less host growth inhibition); details: time post-induction: 4.5 h; library: site-saturation at positions 5, 18, 19, 20
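Further: peptides expressed intracellularly from a pBAD plasmid library in pooled LB shake-flask culture, induced with 0.3% L-arabinose, DNA abundance read by NGS, three biological replicates, DESeq2 with apeglm shrinkage.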

RRIRMRPPRLPRPRPRPCVMPRP and RRIRTRPPRLPRPRPRPLHKPRP are within 0.2 log units of each other in “shrunken log2 fold change” value: 0.0536 for the first, 0.0334 for the second.

Compared with RRIRQRPPRLPRPRPRPLIQPRP, RRIRMRPPRLPRPRPRPHLFPRP is higher in “shrunken log2 fold change” value: -0.228 for the first, -0.0118 for the second.

RRIRVRPPRLPRPRPRPCRPPRP and RRIRYRPPRLPRPRPRPPVGPRP are within 0.2 log units of each other in “shrunken log2 fold change” value: 0.00447 for the first, 0.0196 for the second.

RRIRNRPPRLPRPRPRPSCYPRP and RRIRPRPPRLPRPRPRPDSAPRP are within 0.2 log units of each other in “shrunken log2 fold change” value: -0.181 for the first, -0.18 for the second.

Compared with RRIRNRPPRLPRPRPRPAEDPRP, RRIRLRPPRLPRPRPRPQMNPRP is lower in “shrunken log2 fold change” value: 0.0275 for the first, -0.507 for the second.

First: RRIRERPPRLPRPRPRPWMVPRP
Second: RRIRQRPPRLPRPRPRPLLQPRP
The “shrunken log2 fold change” value of the first is lower: -0.685 for the first, 0.212 for the second.

Going from RRIRCRPPRLPRPRPRPFPFPRP to RRIRFRPPRLPRPRPRPIPFPRP, the “shrunken log2 fold change” value rises from -0.353 to 2.3.

Compared with RRIRFRPPRLPRPRPRPAGCPRP, RRIRRRPPRLPRPRPRPPEPPRP is higher in “shrunken log2 fold change” value: 0.229 for the first, 0.977 for the second.

Compared with RRIRYRPPRLPRPRPRPQYQPRP, RRIRWRPPRLPRPRPRPLMQPRP is higher in “shrunken log2 fold change” value: -0.103 for the first, 0.217 for the second.

Going from RRIRSRPPRLPRPRPRPMIRPRP to RRIRFRPPRLPRPRPRPHIDPRP, the “shrunken log2 fold change” value falls from 0.0902 to -0.335.

RRIRHRPPRLPRPRPRPTFWPRP and RRIRHRPPRLPRPRPRPKDWPRP are within 0.2 log units of each other in “shrunken log2 fold change” value: 0.179 for the first, 0.207 for the second.

RRIRPRPPRLPRPRPRPNALPRP and RRIRDRPPRLPRPRPRPNPKPRP are within 0.2 log units of each other in “shrunken log2 fold change” value: 0.0933 for the first, 0.165 for the second.

First: RRIRGRPPRLPRPRPRPYYIPRP
Second: RRIRRRPPRLPRPRPRPEQKPRP
The “shrunken log2 fold change” value of the first is lower: -0.233 for the first, 0.0588 for the second.

First: RRIRLRPPRLPRPRPRPADWPRP
Second: RRIRYRPPRLPRPRPRPCQAPRP
The “shrunken log2 fold change” value of the first is higher: 0.196 for the first, -0.269 for the second.

First: RRIRMRPPRLPRPRPRPWFTPRP
Second: RRIRERPPRLPRPRPRPINNPRP
The “shrunken log2 fold change” value of the first is higher: -0.263 for the first, -0.944 for the second.

RRIRMRPPRLPRPRPRPVTIPRP and RRIRNRPPRLPRPRPRPKRFPRP are within 0.2 log units of each other in “shrunken log2 fold change” value: -0.0206 for the first, 0.0343 for the second.

RRIRIRPPRLPRPRPRPVIPPRP and RRIRNRPPRLPRPRPRPFIAPRP are within 0.2 log units of each other in “shrunken log2 fold change” value: -0.358 for the first, -0.32 for the second.

Going from RRIRERPPRLPRPRPRPQVVPRP to RRIRCRPPRLPRPRPRPAPMPRP, the “shrunken log2 fold change” value rises from -0.42 to 0.308.

First: RRIRKRPPRLPRPRPRPNADPRP
Second: RRIRWRPPRLPRPRPRPKLTPRP
The “shrunken log2 fold change” value of the first is lower: 0.0182 for the first, 0.475 for the second.

RRIRHRPPRLPRPRPRPWRQPRP and RRIRTRPPRLPRPRPRPWCNPRP are within 0.2 log units of each other in “shrunken log2 fold change” value: 0.0449 for the first, -0.0437 for the second.

Going from RRIRFRPPRLPRPRPRPSDFPRP to RRIRYRPPRLPRPRPRPKMFPRP, the “shrunken log2 fold change” value falls from -0.487 to -0.845.

RRIRCRPPRLPRPRPRPMCLPRP and RRIRCRPPRLPRPRPRPKHNPRP are within 0.2 log units of each other in “shrunken log2 fold change” value: -0.201 for the first, -0.325 for the second.

First: RRIRKRPPRLPRPRPRPFQDPRP
Second: RRIRWRPPRLPRPRPRPSAKPRP
The “shrunken log2 fold change” value of the first is lower: 0.118 for the first, 0.833 for the second.

First: RRIRYRPPRLPRPRPRPTNFPRP
Second: RRIRFRPPRLPRPRPRPGGWPRP
The “shrunken log2 fold change” value of the first is lower: -0.16 for the first, 0.654 for the second.

Going from RRIRIRPPRLPRPRPRPELSPRP to RRIRYRPPRLPRPRPRPCQIPRP, the “shrunken log2 fold change” value rises from -0.476 to -0.00804.

RRIRCRPPRLPRPRPRPVSKPRP and RRIRERPPRLPRPRPRPPKYPRP are within 0.2 log units of each other in “shrunken log2 fold change” value: -0.109 for the first, -0.294 for the second.

Going from RRIRRRPPRLPRPRPRPHRWPRP to RRIRFRPPRLPRPRPRPGWNPRP, the “shrunken log2 fold change” value falls from 0.409 to 0.0411.

Compared with RRIRKRPPRLPRPRPRPCKQPRP, RRIRSRPPRLPRPRPRPEVGPRP is higher in “shrunken log2 fold change” value: 0.0173 for the first, 0.726 for the second.

RRIRYRPPRLPRPRPRPGQTPRP and RRIRFRPPRLPRPRPRPLDQPRP are within 0.2 log units of each other in “shrunken log2 fold change” value: -0.0773 for the first, 0.0734 for the second.

RRIRSRPPRLPRPRPRPDLTPRP and RRIRRRPPRLPRPRPRPVPCPRP are within 0.2 log units of each other in “shrunken log2 fold change” value: 0.0442 for the first, 0.0337 for the second.

Compared with RRIRFRPPRLPRPRPRPQKIPRP, RRIRWRPPRLPRPRPRPLMTPRP is higher in “shrunken log2 fold change” value: -0.299 for the first, 0.47 for the second.

Compared with RRIRQRPPRLPRPRPRPQPTPRP, RRIRWRPPRLPRPRPRPDNTPRP is lower in “shrunken log2 fold change” value: 0.163 for the first, -0.25 for the second.

Going from RRIRCRPPRLPRPRPRPVGWPRP to RRIRGRPPRLPRPRPRPTQSPRP, the “shrunken log2 fold change” value rises from 0.64 to 1.08.

Going from RRIRPRPPRLPRPRPRPMIKPRP to RRIRTRPPRLPRPRPRPRFEPRP, the “shrunken log2 fold change” value rises from -0.696 to 0.0138.

Going from RRIRWRPPRLPRPRPRPMRWPRP to RRIRFRPPRLPRPRPRPGSVPRP, the “shrunken log2 fold change” value falls from 0.648 to -0.147.

Going from RRIRYRPPRLPRPRPRPAMWPRP to RRIRVRPPRLPRPRPRPAGCPRP, the “shrunken log2 fold change” value rises from -0.0439 to 0.459.

Compared with RRIRHRPPRLPRPRPRPMTSPRP, RRIRFRPPRLPRPRPRPIFYPRP is higher in “shrunken log2 fold change” value: -0.491 for the first, -0.0962 for the second.

With RRIRYRPPRLPRPRPRPLKNPRP the “shrunken log2 fold change” value was -0.337.
